Source: article PMC9482650, “Quantitative fragmentomics allow affinity mapping of interactomes” (Nature Communications, 2022)

target: T1, CARD11, Q9BXL7; experiment: holdup assay; parameters: key: below the threshold = too weak to quantify, mostly under pKd 3.1 to 4; settings: plain residues with an end cap or a label only (N-terminal biotin on a linker: ado-ado)
T1 sequence (Q9BXL7 662-765, limits assumed, looked up): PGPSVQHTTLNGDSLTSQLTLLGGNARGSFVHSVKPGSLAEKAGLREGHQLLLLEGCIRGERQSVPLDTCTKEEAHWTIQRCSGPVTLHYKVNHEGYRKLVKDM

Which pKd does the source give for PEYLGLDVPV [ERBB2, P04626] here?
Its pKd is “below the threshold”.

target: T2, DFNB31_2, Q9P202; experiment: holdup assay; parameters: key: below the threshold = too weak to quantify, mostly under pKd 3.1 to 4; settings: plain residues with an end cap or a label only (N-terminal biotin on a linker: ado-ado)
T2 sequence (Q9P202 274-371, limits assumed, looked up): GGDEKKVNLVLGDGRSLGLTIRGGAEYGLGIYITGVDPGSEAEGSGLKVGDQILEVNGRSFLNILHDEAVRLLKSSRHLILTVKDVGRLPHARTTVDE

Which pKd does the source give for PEYLGLDVPV [ERBB2, P04626] here?
The pKd was “below the threshold”.

target: T3, DFNB31_3, Q9P202; experiment: holdup assay; parameters: key: below the threshold = too weak to quantify, mostly under pKd 3.1 to 4; settings: plain residues with an end cap or a label only (N-terminal biotin on a linker: ado-ado)
T3 sequence (Q9P202 811-907, limits assumed, looked up): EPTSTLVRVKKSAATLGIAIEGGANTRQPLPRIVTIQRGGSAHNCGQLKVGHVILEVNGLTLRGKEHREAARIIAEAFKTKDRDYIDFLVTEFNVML

PEYLGLDVPV [ERBB2, P04626] was tested. Which pKd did it give?
Its pKd is “below the threshold”.

target: DLG1_1, Q12959; experiment: holdup assay; parameters: key: below the threshold = too weak to quantify, mostly under pKd 3.1 to 4; settings: plain residues with an end cap or a label only (N-terminal biotin on a linker: ado-ado)

For PEYLGLDVPV [ERBB2, P04626], which pKd is on record?
The pKd was “below the threshold”.

target: DLG1_2, Q12959; experiment: holdup assay; parameters: key: below the threshold = too weak to quantify, mostly under pKd 3.1 to 4; settings: plain residues with an end cap or a label only (N-terminal biotin on a linker: ado-ado)

PEYLGLDVPV [ERBB2, P04626] was tested. Which pKd did it give?
The pKd was “below the threshold”.

target: DLG2_3, Q15700; experiment: holdup assay; parameters: key: below the threshold = too weak to quantify, mostly under pKd 3.1 to 4; settings: plain residues with an end cap or a label only (N-terminal biotin on a linker: ado-ado)

PEYLGLDVPV [ERBB2, P04626] was tested. Which pKd did it give?
The pKd was “below the threshold”.

target: FRMPD2_2, Q68DX3; experiment: holdup assay; parameters: key: below the threshold = too weak to quantify, mostly under pKd 3.1 to 4; settings: plain residues with an end cap or a label only (N-terminal biotin on a linker: ado-ado)
Sequence (Q68DX3 944-1038): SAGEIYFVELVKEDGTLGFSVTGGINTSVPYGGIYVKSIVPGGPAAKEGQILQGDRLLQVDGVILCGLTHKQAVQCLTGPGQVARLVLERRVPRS

How did the pKd turn out when PEYLGLDVPV [ERBB2, P04626] was run?
The pKd was “below the threshold”.

target: FRMPD2_3, Q68DX3; experiment: holdup assay; parameters: key: below the threshold = too weak to quantify, mostly under pKd 3.1 to 4; settings: plain residues with an end cap or a label only (N-terminal biotin on a linker: ado-ado)
Sequence (Q68DX3 1073-1166): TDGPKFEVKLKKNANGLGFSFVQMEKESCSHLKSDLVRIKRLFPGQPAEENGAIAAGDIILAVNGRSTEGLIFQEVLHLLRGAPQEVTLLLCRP

PEYLGLDVPV [ERBB2, P04626] was tested. Which pKd did it give?
Its pKd is “below the threshold”.

target: GIPC2, Q8TF65; experiment: holdup assay; parameters: key: below the threshold = too weak to quantify, mostly under pKd 3.1 to 4; settings: plain residues with an end cap or a label only (N-terminal biotin on a linker: ado-ado)
Sequence (Q8TF65 112-203): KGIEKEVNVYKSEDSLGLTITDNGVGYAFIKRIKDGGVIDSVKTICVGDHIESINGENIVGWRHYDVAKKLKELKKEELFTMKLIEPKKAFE

How did the pKd turn out when PEYLGLDVPV [ERBB2, P04626] was run?
The pKd was “below the threshold”.

target: GRASP, Q7Z6J2; experiment: holdup assay; parameters: key: below the threshold = too weak to quantify, mostly under pKd 3.1 to 4; settings: plain residues with an end cap or a label only (N-terminal biotin on a linker: ado-ado)
Sequence (Q7Z6J2 96-193): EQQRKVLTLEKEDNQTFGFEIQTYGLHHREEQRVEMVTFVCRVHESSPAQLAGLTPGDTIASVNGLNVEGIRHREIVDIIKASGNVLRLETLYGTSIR

How did the pKd turn out when PEYLGLDVPV [ERBB2, P04626] was run?
Its pKd is “below the threshold”.

target: GRID2IP_2, A4D2P6; experiment: holdup assay; parameters: key: below the threshold = too weak to quantify, mostly under pKd 3.1 to 4; settings: plain residues with an end cap or a label only (N-terminal biotin on a linker: ado-ado)
Sequence (A4D2P6 272-370): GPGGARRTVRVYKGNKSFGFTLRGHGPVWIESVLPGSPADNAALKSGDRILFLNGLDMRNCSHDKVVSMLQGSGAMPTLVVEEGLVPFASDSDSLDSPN

With PEYLGLDVPV [ERBB2, P04626] as the binder, how does the pKd read?
Its pKd is “below the threshold”.

target: GRIP2_5, Q9C0E4; experiment: holdup assay; parameters: key: below the threshold = too weak to quantify, mostly under pKd 3.1 to 4; settings: plain residues with an end cap or a label only (N-terminal biotin on a linker: ado-ado)
Sequence (Q9C0E4 544-642): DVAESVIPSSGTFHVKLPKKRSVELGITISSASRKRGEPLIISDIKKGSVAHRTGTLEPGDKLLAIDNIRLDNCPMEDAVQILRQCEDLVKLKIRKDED

How did the pKd turn out when PEYLGLDVPV [ERBB2, P04626] was run?
The pKd was “below the threshold”.

target: GRIP2_6, Q9C0E4; experiment: holdup assay; parameters: key: below the threshold = too weak to quantify, mostly under pKd 3.1 to 4; settings: plain residues with an end cap or a label only (N-terminal biotin on a linker: ado-ado)
Sequence (Q9C0E4 648-740): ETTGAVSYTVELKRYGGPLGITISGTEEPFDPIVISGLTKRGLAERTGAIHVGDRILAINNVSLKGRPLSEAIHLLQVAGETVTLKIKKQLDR

Which pKd does the source give for PEYLGLDVPV [ERBB2, P04626] here?
Its pKd is “below the threshold”.

target: IL16_3, Q14005; experiment: holdup assay; parameters: key: below the threshold = too weak to quantify, mostly under pKd 3.1 to 4; settings: plain residues with an end cap or a label only (N-terminal biotin on a linker: ado-ado)
Sequence (Q14005 1107-1207): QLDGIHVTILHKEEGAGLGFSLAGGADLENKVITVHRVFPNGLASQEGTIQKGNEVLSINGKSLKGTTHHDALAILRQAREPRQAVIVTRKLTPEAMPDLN

How did the pKd turn out when PEYLGLDVPV [ERBB2, P04626] was run?
Its pKd is “below the threshold”.

target: T4, LIN7A, O14910; experiment: holdup assay; parameters: key: below the threshold = too weak to quantify, mostly under pKd 3.1 to 4; settings: plain residues with an end cap or a label only (N-terminal biotin on a linker: ado-ado)
T4 sequence (O14910 103-200, limits assumed, looked up): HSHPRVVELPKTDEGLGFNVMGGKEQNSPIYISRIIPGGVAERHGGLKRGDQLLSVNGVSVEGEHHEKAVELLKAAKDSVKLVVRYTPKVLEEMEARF

With PEYLGLDVPV [ERBB2, P04626] as the binder, how does the pKd read?
Its pKd is “below the threshold”.

target: MAGI2_2, Q86UL8; experiment: holdup assay; parameters: key: below the threshold = too weak to quantify, mostly under pKd 3.1 to 4; settings: plain residues with an end cap or a label only (N-terminal biotin on a linker: ado-ado)
Sequence (Q86UL8 410-522): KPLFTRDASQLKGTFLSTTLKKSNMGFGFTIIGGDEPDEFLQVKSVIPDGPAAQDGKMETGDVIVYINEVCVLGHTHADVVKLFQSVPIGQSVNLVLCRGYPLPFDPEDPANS

How did the pKd turn out when PEYLGLDVPV [ERBB2, P04626] was run?
Its pKd is “below the threshold”.

target: MAST1, Q9Y2H9; experiment: holdup assay; parameters: key: below the threshold = too weak to quantify, mostly under pKd 3.1 to 4; settings: plain residues with an end cap or a label only (N-terminal biotin on a linker: ado-ado)
Sequence (Q9Y2H9 962-1065): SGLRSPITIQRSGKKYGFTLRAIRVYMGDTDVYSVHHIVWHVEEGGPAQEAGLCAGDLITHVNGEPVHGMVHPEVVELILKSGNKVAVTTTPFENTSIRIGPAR

PEYLGLDVPV [ERBB2, P04626] was tested. Which pKd did it give?
Its pKd is 3.98.

target: T5, MPDZ_5, O75970; experiment: holdup assay; parameters: key: below the threshold = too weak to quantify, mostly under pKd 3.1 to 4; settings: plain residues with an end cap or a label only (N-terminal biotin on a linker: ado-ado)
T5 sequence (O75970 695-796, limits assumed, looked up): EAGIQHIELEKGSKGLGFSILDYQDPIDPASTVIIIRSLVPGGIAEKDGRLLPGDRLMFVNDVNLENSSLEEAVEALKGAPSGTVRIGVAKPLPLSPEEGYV

For PEYLGLDVPV [ERBB2, P04626], which pKd is on record?
The pKd was “below the threshold”.

target: T6, MPP6, Q9NZW5; experiment: holdup assay; parameters: key: below the threshold = too weak to quantify, mostly under pKd 3.1 to 4; settings: plain residues with an end cap or a label only (N-terminal biotin on a linker: ado-ado)
T6 sequence (Q9NZW5 125-219, limits assumed, looked up): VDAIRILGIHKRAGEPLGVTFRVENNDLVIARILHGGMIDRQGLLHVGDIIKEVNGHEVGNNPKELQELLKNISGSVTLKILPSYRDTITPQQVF

With PEYLGLDVPV [ERBB2, P04626] as the binder, how does the pKd read?
The pKd was “below the threshold”.

target: NHERF2_2, Q15599; experiment: holdup assay; parameters: key: below the threshold = too weak to quantify, mostly under pKd 3.1 to 4; settings: plain residues with an end cap or a label only (N-terminal biotin on a linker: ado-ado)
Sequence (Q15599 142-238): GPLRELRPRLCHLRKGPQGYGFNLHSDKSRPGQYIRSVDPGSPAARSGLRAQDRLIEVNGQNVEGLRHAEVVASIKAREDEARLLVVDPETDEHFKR

With PEYLGLDVPV [ERBB2, P04626] as the binder, how does the pKd read?
The pKd was “below the threshold”.

target: T7, NHERF3_1, Q5T2W1; experiment: holdup assay; parameters: key: below the threshold = too weak to quantify, mostly under pKd 3.1 to 4; settings: plain residues with an end cap or a label only (N-terminal biotin on a linker: ado-ado)
T7 sequence (Q5T2W1 4-100, limits assumed, looked up): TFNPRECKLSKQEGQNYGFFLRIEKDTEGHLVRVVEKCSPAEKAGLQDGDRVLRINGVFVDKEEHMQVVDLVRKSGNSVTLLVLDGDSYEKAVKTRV

With PEYLGLDVPV [ERBB2, P04626] as the binder, how does the pKd read?
The pKd was “below the threshold”.

target: T8, NHERF3_4, Q5T2W1; experiment: holdup assay; parameters: key: below the threshold = too weak to quantify, mostly under pKd 3.1 to 4; settings: plain residues with an end cap or a label only (N-terminal biotin on a linker: ado-ado)
T8 sequence (Q5T2W1 373-468, limits assumed, looked up): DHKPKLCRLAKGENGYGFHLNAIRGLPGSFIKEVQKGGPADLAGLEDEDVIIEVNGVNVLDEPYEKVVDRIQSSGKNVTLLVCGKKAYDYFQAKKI

Which pKd does the source give for PEYLGLDVPV [ERBB2, P04626] here?
Its pKd is 3.59.

target: T9, PCLO, Q9Y6V0; experiment: holdup assay; parameters: key: below the threshold = too weak to quantify, mostly under pKd 3.1 to 4; settings: plain residues with an end cap or a label only (N-terminal biotin on a linker: ado-ado)
T9 sequence (Q9Y6V0 4491-4600, limits assumed, looked up): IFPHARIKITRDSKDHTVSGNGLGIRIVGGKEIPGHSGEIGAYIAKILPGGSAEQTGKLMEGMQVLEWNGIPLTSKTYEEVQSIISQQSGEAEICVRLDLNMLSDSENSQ

How did the pKd turn out when PEYLGLDVPV [ERBB2, P04626] was run?
The pKd was “below the threshold”.

target: T10, PDZD2_2, O15018; experiment: holdup assay; parameters: key: below the threshold = too weak to quantify, mostly under pKd 3.1 to 4; settings: plain residues with an end cap or a label only (N-terminal biotin on a linker: ado-ado)
T10 sequence (O15018 329-429, limits assumed, looked up): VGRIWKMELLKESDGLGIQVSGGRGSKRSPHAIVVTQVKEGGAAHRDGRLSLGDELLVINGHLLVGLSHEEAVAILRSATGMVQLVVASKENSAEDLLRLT

With PEYLGLDVPV [ERBB2, P04626] as the binder, how does the pKd read?
The pKd was “below the threshold”.

target: T11, SIPA1L2, Q9P2F8; experiment: holdup assay; parameters: key: below the threshold = too weak to quantify, mostly under pKd 3.1 to 4; settings: plain residues with an end cap or a label only (N-terminal biotin on a linker: ado-ado)
T11 sequence (Q9P2F8 945-1036, limits assumed, looked up): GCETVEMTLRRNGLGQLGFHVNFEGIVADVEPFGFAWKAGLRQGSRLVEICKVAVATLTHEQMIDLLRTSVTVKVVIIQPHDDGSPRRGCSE

Which pKd does the source give for PEYLGLDVPV [ERBB2, P04626] here?
Its pKd is “below the threshold”.

target: T12, SNTA1, Q13424; experiment: holdup assay; parameters: key: below the threshold = too weak to quantify, mostly under pKd 3.1 to 4; settings: plain residues with an end cap or a label only (N-terminal biotin on a linker: ado-ado)
T12 sequence (Q13424 82-180, limits assumed, looked up): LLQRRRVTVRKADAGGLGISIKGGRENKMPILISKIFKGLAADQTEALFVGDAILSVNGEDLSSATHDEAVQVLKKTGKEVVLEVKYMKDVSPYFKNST

With PEYLGLDVPV [ERBB2, P04626] as the binder, how does the pKd read?
Its pKd is 3.61.
